Assay results taken from PMC3357421, “Conserved Orb6 Phosphorylation Sites Are Essential for Polarized Cell Growth in Schizosaccharomyces pombe” (PLoS ONE, 2012).

Biological target: T1, His6-HA-Nak1 (S. pombe, UniProt O75011 1-652)
T1 construct: Nak1, Ser/Thr kinase of fission yeast (Schizosaccharomyces pombe); HA-Nak1 inserted into pET33b; also called pET33b-His6-HA-Nak1; source: E. coli BL21, purified (NiNTA agarose)
T1 sequence (looked up): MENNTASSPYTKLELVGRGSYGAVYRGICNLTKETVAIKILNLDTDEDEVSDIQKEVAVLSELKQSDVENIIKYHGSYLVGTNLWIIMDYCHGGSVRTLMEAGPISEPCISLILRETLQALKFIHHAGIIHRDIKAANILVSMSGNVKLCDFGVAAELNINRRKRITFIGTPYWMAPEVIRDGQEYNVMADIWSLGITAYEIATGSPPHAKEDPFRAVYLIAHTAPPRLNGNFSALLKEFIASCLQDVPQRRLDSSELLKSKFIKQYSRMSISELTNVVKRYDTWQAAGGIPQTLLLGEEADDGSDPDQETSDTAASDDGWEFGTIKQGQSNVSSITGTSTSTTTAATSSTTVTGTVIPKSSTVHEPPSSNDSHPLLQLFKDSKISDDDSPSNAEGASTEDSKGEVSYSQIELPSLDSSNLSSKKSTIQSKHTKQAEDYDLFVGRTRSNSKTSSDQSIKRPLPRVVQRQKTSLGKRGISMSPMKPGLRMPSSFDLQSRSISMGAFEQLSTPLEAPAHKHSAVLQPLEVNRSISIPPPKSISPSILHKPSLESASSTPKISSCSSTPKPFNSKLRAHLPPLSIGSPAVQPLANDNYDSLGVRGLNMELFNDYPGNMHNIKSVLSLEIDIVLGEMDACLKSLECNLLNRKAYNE
Experiment: pull-down; GST or GST-Orb6 bound to Glutathione Sepharose 4B beads incubated with His6-HA-Nak1 for 2 h; washed 3 times with 150 mM NaCl, 1 mM DTT, phosphate pH 7.3; western blot with anti-HA (12CA5)
Details: both partners purified

B1: GST-Orb6 (enzyme, S. pombe, UniProt O13310 1-469, looked up)
chain: MDKNDYLHFERNPSLFPKSTLDKVQKTKKYIEHYYKVAVDHAVERNQRRINLEQRLATERGSEERKNRQLRASGEKESQFLRFRRTRLSLEDFSTIKVIGKGAFGEVRLVQKLDTGKIYAMKSLLKTEMFKRDQLAHVKAERDLLVESDSPWVVSLYYAFQDSLYLYLIMEFLPGGDLMTMLINYDTFSEDVTRFYMAECVLAIADVHRMGYIHRDIKPDNILIDRDGHIKLSDFGLSTGFYKQDQSASYMKPRTGNTVKRGQMVDAIWLTMSSKDKMATWKKNRRVMAYSTVGTPDYIAPEIFLQQGYGQDCDWWSLGAIMFECLIGWPPFCSENSHETYRKIINWRETLTFPNDIHLSIEARDLMDRLMTDSEHRLGRGGAIEIMQHPFFTGIDWDHIRETAAPFIPNLKSITDTHYFPVDELEQVPEQPVTQQPASVDPQTLEQTNLAFLGYTYKKFNYLTMKGAL
notes: Orb6, Ndr-related Ser/Thr kinase of fission yeast (Schizosaccharomyces pombe); PCR-amplified cDNA fragment encoding Orb6 in pGEX-5X-1 (a pGEX-6p-1 construct was also made); also called pGEX-5X-1-Orb6; source: E. coli BL21, purified (Glutathione Sepharose 4B)
binding result: binds
